B1: TMEM106C (parent)
chain: YVTTNVSLIPPRSEQLVNFTGKAE
B2: MYL5 (parent)
chain: FQFASIDVAGNLDYKALSYVITHG

Variants of: B1
Assay: protein stability index of a GFP-peptide fusion (GPS, HEK-293T) (PSI 1-6); higher = more stable
Conditions: c terminus: a fixed tail appended
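Note: lentivirally expressed fusions sorted by FACS into six bins by GFP to DsRed ratio, PSI derived from sequencing read proportions per bin multiplied by bin number.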

Protein stability index, by site and new letter:
S13: D 1.57; M 2; G 1.86; L 2.32; C 2.24; R 1.86; W 1.18; T 1.74; H 2.34; P 1.64; V 2.07; E 1.88
G21: Q 2.3; K 1.59; W 2.5; L 1.58; V 2.12; M 3.92; N 2.75; S 1.6; D 2.71; F 2.77; C 1.83; T 1.86; P 3.07; A 1.99
E24: Q 2.06; N 2.92; Y 2.7; I 2.32; K 1.88; V 1.41; S 2.1; W 2.93; R 1.48; A 2; D 2.58
L8: A 2.21; F 2.54; K 1.71; T 1.95; C 1.66; I 2.04; Y 1.86; V 1.67
T3: R 2.52; L 2.15; W 2.91; E 2.99; H 1.98; C 2.3; G 2.11; V 1.98; D 1.9
Y1: N 3.79; T 3.44; F 2.21; H 3.88; V 2.19; S 3.24; R 3.44; L 2.94
V17: Y 2.44; N 1.62; H 2.1; T 1.91; K 2.83; G 1.98
L16: C 2.16; E 2.1; A 2.14; I 2.23; T 1.79; Q 1.92; Y 1.73; M 2.02; K 1.9; W 2.26; R 1.95; H 1.49
T20: E 2.09; V 1.84; P 2.29; A 2.27; C 2.34; I 2.08; S 1.51; Q 1.66; W 2.85; N 1.53; K 2.11
V2: D 4.58; P 3.98; I 2.67; G 4.17; N 4.08; M 3.03; H 2.62; Q 3.28; T 3.48; R 3.23
T4: H 2.07; V 1.51; P 2.43; C 1.29; G 1.89; W 2.85; M 2.59; K 1.77
N18: K 2.71; W 3.06; I 3.13; R 2.33; T 1.62; S 2.36; A 2.02; G 1.7; L 2.14; M 2.37; P 2.4; V 1.81; C 1.95
N5: Y 2.98; I 2.24; T 2.52; A 1.91; V 1.69; Q 2.71; M 2.16; K 2.41
S7: C 2.56; F 1.83; Y 3.23; A 1.31; I 3.34; T 2.64; D 2.37; P 2.81; W 1.54; H 2.29; Q 2.27
F19: S 2.71; K 2.25; A 2.03; H 2.56; E 2.7; I 2.02; M 1.9; R 1.68; T 2.65
Q15: T 2.23; P 2.28; V 2.17; M 1.7; H 2.33; I 2.37
V6: R 1.92; G 1.77; K 1.87; H 1.59; I 1.86
E14: I 2.17; Y 2.19; W 2; A 2.11; G 1.59; Q 1.5; L 2.27; F 1.99; R 1.87
P10: K 2.45; Y 2.88; R 3; C 2.58; L 1.86; A 3.06; F 2.74; H 1.91; W 2.56
K22: M 2.54; Q 1.53; I 1.88; C 2.1; N 2.04; L 1.96; A 2.23; S 1.72; F 2.26
A23: Y 2.44; C 1.84; R 2.4; E 1.65; G 1.91; K 2.23; M 1.81; W 2.51; F 2.06; N 1.82; V 2.3; Q 1.74; L 1.31
P11: E 1.72; T 1.74; Y 2.75; R 1.41; D 2.11; L 1.51; I 2.3; V 1.41; H 1.97; M 1.45
I9: D 2.24; K 2.02; M 1.86; W 1.75; Q 1.61; F 1.7; C 1.2; R 1.99; P 1.81; Y 2.32
R12: C 1.86; M 2.14; A 2.85; T 2.09; S 2.23; L 1.48; G 2.49; N 1.83; I 1.78; H 1.85; E 1.9

Variants of: B2
Assay: as above
Conditions: c terminus: a fixed tail appended

Protein stability index of substitutions, site by site:
G24: T 3.18; L 3.92; Q 2.05; R 3.26; F 2.42; A 3
T22: A 2.03; H 3.83; K 2.22; N 2.52; Q 2.54; M 2.95; I 2.55; W 4.39; E 2.02; D 1.8; C 2.52; G 3.98
L17: Y 2.8; D 1.94; K 2.71; A 2.49; Q 2.03; W 2.39; H 2.06; P 2.35; C 3.94; S 3.25; G 2.72; N 1.39; E 1.44; F 2.71; M 3.7; T 2.2
I21: N 1.93; D 2.57; E 2.11; P 2.18; S 1.72; Q 1.9; R 1.03; H 1.53; V 2.26; M 1.48; G 2.37; T 1.54; Y 1.65; A 2.79; K 1.64
Y19: T 1.83; D 1.53; H 2.35; E 2.89; N 2.41; V 2.19; S 1.73; M 2.44; F 1.87; K 1.06; P 1.43; W 2.69; R 2.11; G 3.74; Q 3.41
V20: Y 1.3; N 1.7; S 3.47; R 2.46; M 1.49; C 3.44; A 3.37; T 2.29; Q 2.96; K 2.23; P 1.32; F 3.64; D 1.34; G 2.81; H 3.27
A16: V 3.37; Q 2.81; L 2.64; S 2.11; N 1.91; P 5.11; T 2.44
S18: L 1.83; K 1.62; M 3.46; D 1.75; E 1.56; Q 1.49; I 2.66
H23: K 1.43; E 2.44; A 2.01; Q 3.48; P 2.56; R 2.65; T 2.42; L 2.78; D 2.25

Source: the supplement of paper PMC10567573
